# Measurements reported in US10508147B2, “Anti-nodal antibodies and methods of using same” (ANN AND ROBERT H. LURIE CHILDREN'S HOSPITAL OF CHICAGO, priority 2014, dated 2019).
# T1: native Nodal protein in LCP, A375 and WM266 melanoma cells (Homo sapiens, UniProt Q96S42)
# T1 construct: recognize the endogenous forms of Nodal protein in human melanoma cells; endogenous in cells; host or cells: human melanoma lines PES, A-375, SK-MEL, WM 266, LCM (blot); LCP, A375, WM266 (FACS)
# T1 sequence (Q96S42 238-347): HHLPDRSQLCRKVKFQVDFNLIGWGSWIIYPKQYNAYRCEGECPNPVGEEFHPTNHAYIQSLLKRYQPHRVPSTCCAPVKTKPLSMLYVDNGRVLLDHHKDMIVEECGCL
# T2: endogenous Nodal protein (Homo sapiens, UniProt Q96S42)
# T2 construct: recognize the endogenous forms of Nodal protein in human melanoma cells; endogenous in cells; host or cells: human melanoma lines PES, A-375, SK-MEL, WM 266, LCM (blot)
# T2 sequence (Q96S42 238-347): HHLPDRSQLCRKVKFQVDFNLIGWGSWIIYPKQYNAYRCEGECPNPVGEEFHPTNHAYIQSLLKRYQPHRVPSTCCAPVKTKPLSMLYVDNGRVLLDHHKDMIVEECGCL
# What was measured:
# [1] = biological target: T1, native Nodal protein in LCP, A375 and WM266 melanoma cells; assay: FACS staining of Nodal in fixed and permeabilized human melanoma cell lines with 3D1; assay type: binding; settings: 0.1-2.0 μg/mL, dose-dependent
# Description: LCP, A375 and WM266 melanoma cells were collected by centrifugation. After aspiration of supernatant, the cells were resuspended in 500 μL of PBS and formaldehyde was added to obtain a final concentration of 4%. Cells were fixed for 10 min at room temperature. After fixation, cells were permeabilized by adding 500 μL of PBS-Tween 20. 1×10^6 cells were aliquoted into each vial; 1 mL of PBS (incubation buffer) was added to each vial and cells were washed by centrifugation at 4000 rpm for 5 min at 4° C. Cells were resuspended in 100 μL of solution of 3D1 anti-Nodal antibody (primary antibody), diluted in PBS at the following concentrations: 0.1, 0.5, 1.0 and 2.0 μg/mL. A standard IgG1 isotype was used as negative control. Cells were incubated with the primary antibody for 1 h at 4° C. under shaking. After incubation, cells were washed by centrifugation in 1 mL of PBS, resuspended and incubated with a FITC-conjugated anti-mouse antibody (secondary antibody), diluted 1:1000 (1.0 μg/mL) in PBS, for 40 min at 4° C. in the dark under stirring. Cells were washed by centrifugation with 1 mL of incubation buffer, re-suspended in […] and analyzed on flow cytometer. Fluorescence was evaluated using the BD FACScalibur System.
# endogenous Nodal protein = biological target: T2, endogenous Nodal protein; assay: Western blot detection of endogenous Nodal in human melanoma cell lysates with 3D1; assay type: binding; settings: 3D1 at 2 μg/mL; panel of human melanoma cell lines and HEK-293
# Description: Western blot analyses for the detection of endogenous Nodal protein were performed using the following human skin malignant melanoma cell lines: PES, A-375, SK-MEL, WM 266 and LCM. HEK-293 (human embryonic kidney) cells and 100 ng of rhNodal protein were used as positive controls. Cells were lysed performing three freeze/thaw cycles in 50 mM Tris-HCl pH 7.5, 500 mM NaCl, 1% NP-40, 10 mM EDTA, 1 mM MgCl2, 1 mM CaCl2, 10% Glycerol, with an added cocktail of protease inhibitors and PMSF (phenyl-methanesulfonylfluoride). Cell lysates were cleared by centrifugation at 12,000 rpm for 20 min at 4° C. and the supernatants were quantified by Bradford assay. 50 μg of cell lysate from each sample were applied to a 15% SDS-PAGE gel under reducing conditions and electrophoresed for 3 h at 80 V. Separated proteins were transferred onto a polyvinylidene difluoride (PVDF) membrane (Millipore), previously soaked in methanol 100% for 5 min. […] The target protein was detected using the enhanced chemi-luminescent substrate method with the SuperSignal West Pico kit provided by Pierce Chemical Co. following the manufacturer's instructions. Signals were acquired with the ChemiDoc XRS video densitometer using the Quantity One software.
# [2] = tested on: C8161 metastatic melanoma cells; assay: C8161 lung colonization (metastasis) model in Nude mice; assay type: in vivo; settings: for lung colonization: IP 3D1 vs IgG control
# Description: Lung tumor burden was determined as the mean percentage of lung occupied by C8161 melanoma cell colonies calculated from at least 5 different lung sections per individual mouse (See FIG. 26). Experimental Protocol: 250,000 C8161 metastatic melanoma cells were injected i. v. in Nude mice and lung colonization established. Following colonization, animals received by i.p. delivery either 3D1 monoclonal anti-Nodal antibody (100 μg/injection) or control IgG over the next 10 days, every other day (5 total injections).
# To evaluate the in vivo effects of 3D1 mAb, a metastatic melanoma lung metastasis model was established by injecting 250,000 C8161 cells intravenously in Nude mice. After 4 days during which cells were allowed to colonize the lungs, mice were separated into treatment and control groups. The treatment group received a total of 500 μg of 3D1 mAb versus 500 μg of irrelevant isotype IgG in the control group administered over 10 days (alternate day intraperitoneal injection (IP) of 100 μg of either 3D1 mAb or IgG). At the end of the treatment period, mice were sacrificed and lungs harvested and processed for histologic evaluation of lung tumor burden and immunohistochemistry. Lung tumor burden was determined by evaluating the mean percentage of lung tissue occupied by C8161 in at least 4 separate fields at low power (10× objective) in lungs from at least 4 separate mice for each group and performed by 2 different observers. A final mean±SEM was calculated from the separate means determined by the individual observers.
# Four micron thick, formalin fixed, paraffin embedded tissue sections were prepared and immunohistochemistry was carried out on a Dako Plus autostainer (DAKO, Inc, Carpenteria, Calif.). Following antigen retrieval and blocking steps, sections were incubated in primary antibody for 60 mins, followed by appropriate biotinylated secondary antibody (Biocare Medical, Conrad, Calif.), and then streptavidin-horseradish peroxidase (Thermo Scientific Lab Vision). Color was developed with 3,3′-diaminobenzidine substrate (Thermo Scientific Lab Vision) and sections were counterstained with hematoxylin (Biocare Medical, LLC). As a negative control, adjacent serial sections were incubated with species appropriate irrelevant IgG (Jackson ImmunoResearch Labs) at the same concentration as primary antibodies. Similar to the lung tumor burden evaluation described above, mean percentage of positive staining±SEM was determined by 2 different observers, each calculating the ratio of positive cells/total number of cells×100 for 4 separate high power fields (63× objective) from at least 2 different mice per group.
molecule,measurement,setting,value
"3D1: mouse monoclonal anti-Nodal antibody raised against hNodal(44-67); light chain SEQ ID NO:1, heavy chains SEQ ID NO:2 and 3 (protein, not fully specified; (120)..(120) Xaa can be any naturally occurring amino acid) light: DIKMTQSPASLSASVGETVTITCRASGNIHNYLAWYQQKQGKSPQLLVYNAKTLADGVPSRFSGSGSGTQYSLKINSLQPEDFGSYYCQHFWSTPHVRCWDQAGTETEAW heavy 1: VKLVESGGGLVKPGGSLKLSCAASGFTFSSYAMSWVRQTPEKRLEWVASISSGGCTYYPDSVKGRFTISRDNARNILYLQMSSLRSEDTAMYYCARGSMITADGNSLLLCYGLLGSRNLXHR heavy 2: VKLVESGGGLVQPGGSMKLSCVASGFTFRNYWMSWVRQSPEKGLEWVAEIRLKSDNYAARYAESVKGKFTISRDDSKSRLYLQMNSLRAEDTGIYYCTGIRRFAYWGQGTL",binding to native Nodal protein in cells (FACS),[1],bound native Nodal protein also in intact cells at very low concentrations
same,staining of endogenous Nodal forms in Western blot,endogenous Nodal protein,able to stain the immature form pro-Nodal
same,mean percentage (±SEM) of cells staining for p27 in lung colonies,"[2]; IHC, N=6",39.5%±17%
same,mean percentage (±SEM) of cells with nuclear localization of P-Smad2 in lung colonies,"[2]; IHC, N=6",39±8.9%
same,percentage (+/−SEM) of cells staining for Cyclin B1 in lung colonies,"[2]; IHC, N=6",25.9%±9.4%
same,lung tumor burden: mean percentage (±SEM) of lung tissue occupied by C8161 colonies,"[2]; IP 100 μg alternate days over 10 days, N=8",25.8%±4.6%
same,lung colonization,[2],reduced lung colonization
same,lung colonization,[2]; listed as 3D1 mAb,significantly reduced
